In patent publication US20260234660A1 (Regeneron, published 2026):
Read-outs that look alike come from different tables or passages of the source.

What was measured:
[1] = target: T1, human CACNG1, cell surface-expressed (human, UniProt Q06432 1-222); assay: cell-based or functional assay
[2] = target: T1, human CACNG1, cell surface-expressed; assay: cell-based or functional assay; remark: listed apart in the source
[3] = target: T1, human CACNG1, cell surface-expressed; assay: cell-based or functional assay; remark: listed apart in the source
[4] = target: T2, nanodisc embedded human CACNG1 expressed with a C-terminal PADRE-Flag-His tag (human, UniProt Q06432 1-222); assay: SPR (Biacore T200), 25 C, anti-His-captured human CACNG1 nanodisc, antibody as analyte
T2 construct: Membrane protein (gamma-1 subunit of the skeletal muscle L-type calcium channel) in a nanodisc; also called human CACNG1 nanodisc; CACNG1 nanodisc; not shown: C-terminal PADRE-Flag-His tag
T2 sequence (Q06432 whole entry): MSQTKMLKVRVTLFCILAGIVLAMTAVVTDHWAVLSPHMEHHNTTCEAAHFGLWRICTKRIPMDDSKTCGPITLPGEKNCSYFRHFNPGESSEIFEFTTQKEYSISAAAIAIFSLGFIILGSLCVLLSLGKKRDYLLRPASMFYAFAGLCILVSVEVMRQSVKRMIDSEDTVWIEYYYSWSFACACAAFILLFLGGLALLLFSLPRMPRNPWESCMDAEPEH
Protocol: Equilibrium dissociation constants (KD values) for nanodisc embedded human CACNG1 expressed with a C-terminal PADRE-Flag-His tag (human CACNG1 nanodisc) binding to purified anti-hCACNG1 antibodies were determined using a real-time surface plasmon resonance biosensor technology with a Biacore T200 instrument. The CM5 Biacore sensor surface was derivatized by amine coupling with a monoclonal mouse anti-His antibody (Cytiva; Marlborough, MA). All Biacore binding studies were performed in a buffer composed of 0.01M HEPES, 0.15M NaCl, 1 mM CaCl₂), 0.5 mM MgCl₂, pH 7.4 (HBS-N++ running buffer). Different concentrations of anti-hCACNG1 antibodies (ranging from 300 nM to 12 nM in 5-fold serial dilutions) prepared in HBS-N++ running buffer were injected over the captured human CACNG1 nanodisc at a flow rate of 30 μL/minute. Antibody association was monitored for 2 minutes while dissociation was monitored in HBS-N++ running buffer for 5 minutes. At the end of each cycle, the human CACNG1 nanodisc capture surface was regenerated using three 10 second injections of 10 mM Gly pH1.5. All binding kinetics experiments were performed at 25° C.

[5] = target: T3, mouse CACNG1 on myofibers of wildtype mice (mouse, UniProt O70578 1-223); assay: immunofluorescence on live single myofibers ex vivo (wildtype mice), fluorescent secondary antibody, confocal imaging
T3 construct: whole, on cells; Target inferred from the cells: the wildtype myofibers carry mouse CACNG1, which the CACNG1^Hu/Hu mice have replaced by human CACNG1; also called wildtype (WT) myofibers
T3 sequence (looked up): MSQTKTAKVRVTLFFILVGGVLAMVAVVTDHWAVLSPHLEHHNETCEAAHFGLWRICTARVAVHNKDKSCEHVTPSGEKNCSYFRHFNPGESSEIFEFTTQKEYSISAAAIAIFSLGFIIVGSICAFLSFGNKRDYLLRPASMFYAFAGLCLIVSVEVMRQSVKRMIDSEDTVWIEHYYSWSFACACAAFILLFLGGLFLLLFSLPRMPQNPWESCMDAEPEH
Protocol: Single myofibers were isolated from either wildtype mice, mice that were homozygous for the deletion of CACNG1 (referred to as CACNG1 knockout mice), or mice that were homozygous for the expression of human CACNG1 in place of mouse CACNG1 (referred to as CACNG1^{Hu/Hu}). The gastrocnemius muscle was removed, collagenase digested, and single myofibers were isolated, washed, and incubated overnight at 37° C. at 5% C02, in DMEM+10% horse serum. […] Myofibers were then washed twice in DMEM+10% horse serum, and subsequently incubated with 10 ug/mL of fluorescent-conjugated secondary antibodies for 30 minutes, washed twice in DMEM+10% horse serum, and then fixed with 4% paraformaldehyde (PFA) for 15 minutes at room temperature. Single fibers were then washed twice with PBS, stained with Hoechst for 5 minutes, washed once more with PBS, then transferred to microscope slides, coverslipped, and imaged using a Zeiss LSM 710 confocal microscope.

[6] = target: T1, human CACNG1, cell surface-expressed; assay: cell-based or functional assay; remark: listed apart in the source
[7] = target: T1, human CACNG1, cell surface-expressed; assay: cell-based or functional assay; remark: listed apart in the source
[8] = target: T1, human CACNG1, cell surface-expressed; assay: cell-based or functional assay; remark: listed apart in the source

T1 sequence (Q06432 whole entry): as the sequence (Q06432 whole entry) above

B1: REGN14573-M3004 (antibody, V domains shown)
VH: EVQLVESGGNLVQPGGSLRLSCAASGFTFTSHAMNWVRQAPGKGLEWVSVITGRGFDTHYADSVKGRFTISRDISKNTLYLQMNSLRAEDTAVYYCAKGLYDSGNYYIDYWGQGTLVTVSS
VL: QSVLTQPPSVSAAPGQKVTISCSGSSSNIGNNYVSWYQQLPGTAPKLLIYDNNKRPSGIPDRFSGSKSGTSATLGITGLQTGDEADYYCGTWDLSLSFNWVFGGGTKLTVLG
modifications: N180Q in the constant region; linker-payload M3004 (VC-PAB linker, DHT), DAR ~4
[1]
  EC50; androgen receptor luciferase reporter (RLU), hCACNG1.AR.Luc LNCaP cells, 24 hours: 214 nM
[2]
  EC50; androgen receptor luciferase reporter (RLU), hCACNG1.AR.Luc LNCaP cells, 72 hours: 185 nM
[3]
  EC50; androgen receptor luciferase reporter (RLU), hCACNG1.AR.Luc LNCaP cells, 48 hours: 213 nM

B2: REGN10713 (antibody, human IgG4 S228P, lambda, V domains shown)
VH: B1 VH
VL: B1 VL
notes: also called antibody designation 11
[4]
  mAb Bound at 300 nM (RU): 53 RU

B3: H2aM31941N (antibody, V domains shown)
VH: QVQLVQSGAEVKKPGASVKVSCKASGYAFTTYGITWVRQAPGQGLEWMGWISAYNGNTNYAEKVQGRFTMTTDTSTNTAYMELRSLRSDDTAVYFCARKGHYGSGTYYNPFGFDFWGQGTMVTVSS
VL: EIMLMQSPGTLSLSPGERATLSCRASQSVSSSYLAWYQQKPGQAPRLLIYGASSRATDIPDRFSGSGSGTDFTLTISRLEPEDFAVYFCQQYYGSPWTFGQGTKVEIK
notes: also called antibody designation 8
[4]
  mAb Bound at 300 nM (RU): 19 RU

B4: H1M31941N (antibody, mouse IgG1, kappa, V domains shown)
VH: B3 VH
VL: EIMLMQSPGTLSLSPGERATLSCRASQSVSSSYLAWYQQKPGQAPRLLIYGASSRATDIPDRFSGSGSGTDFTLTISRLEPEDFAVYFCQQYYGSPWTFGQGTKVEIKR
notes: as for B3
[5]
  binding result: no binding (tested: 100 nM)

B5: REGN14572-M3004 (antibody, V domains shown)
VH: QVQLVESGGGVVQPGRSLRLSCAASGFTFSTYGMHWVRQAPGKGLEWVAVIWHDGSDKYYVDSVKGRFSIARDNSKNTLYLQMNSLRVEDTGIYYCARRGIRGTVFDHWGLGTLVTVSS
VL: DIQMTQSPSTLSASVGDRVTLTCRASQSISNKLAWYQQKPGKAPNLLIYKASNLESGVPSRFSGSGSGTEFTLTISSLQPDDFATYYCQQYNSYSWTFGQGTKVEIKR
[6]
  EC50; androgen receptor luciferase reporter (RLU), hCACNG1.AR.Luc LNCaP cells, 72 hours: 10.3 nM
[7]
  EC50; androgen receptor luciferase reporter (RLU), hCACNG1.AR.Luc LNCaP cells, 24 hours: 11.2 nM
[8]
  EC50; androgen receptor luciferase reporter (RLU), hCACNG1.AR.Luc LNCaP cells, 48 hours: 11.9 nM

B6: REGN10717 (antibody, human IgG4 S228P, kappa, V domains shown)
VH: B5 VH
VL: B5 VL
notes: also called antibody designation 3
[4]
  mAb Bound at 300 nM (RU): 7 RU

B7: REGN7660 (antibody, human IgG4 S228P, kappa, V domains shown)
VH: EVQLVESGGGLVQPGGSLKLSCTASGLTLSDSAMHWVRQASGKGLEWVGRIRNKANRYATEYAASVKGRFTISRDDSKNTAYLQMNSLKTEDTAVYYCTRNWKIFLFDYWGQGTLVTVSS
VL: EIVLTQSPGTLTLSPGERATLSCRASQSVGSKYLAWFQQKRGQAPRLLIYGASSRTSGIPDRISGSGSGTDFTLTISRLEPEDFAVYYCQQYGSSPWTFGQGTKVEIKR
notes: also called antibody designation 9
[4]
  mAb Bound at 300 nM (RU): 23 RU

B8: REGN9909 (antibody, mouse IgG2a, kappa, V domains shown)
VH: EVQLLESGGGLVQPGGSLRLSCAASGFTFNNYGMSWVRQGPGKGLEWVSSISGSGGTTFYADSVKGRFTISRDNSKNTLYLQMNSLRAEDTAVYYCGKGGYCSSSGCRHYGMDVWGQGTTVTVSS
VL: QSVLTQPPSASGTPGQRVTISCSGSSSNIGNNYIYWYQRLPGTTPKLLIYRNNQRPSGVPDRFSGSKSGTSASLAISGLRSEDEADYYCAAWDDTLSGYVFGTGTKVTVLR
notes: also called antibody designation 10
[4]
  mAb Bound at 300 nM (RU): 22 RU

B9: REGN14570-M3004 (antibody, V domains shown)
VH: QVQLQQWGAGLLKPSATLSRTCAVYGGSFSGYYWNWIRQSPGKGLEWIGEILHSGRTNYNPSLKSRVTISVDTSKNQFSLKLTSVTAADTAVYYCAGRIAARHGWFDPWGQGTLVTVSS
VL: DIQMTQSPSSVSTSVGDRVTISCRASQDIRKWLAWYQQKPGKAPKLLIYATSSLQSGVPSRFSGSGSGTDFTLTISSLQPEDFATYFCQQANSFPFTFGQGTKLEIKR
[6]
  EC50; androgen receptor luciferase reporter (RLU), hCACNG1.AR.Luc LNCaP cells, 72 hours: 6.65 nM
[7]
  EC50; androgen receptor luciferase reporter (RLU), hCACNG1.AR.Luc LNCaP cells, 24 hours: 2 nM
[8]
  EC50; androgen receptor luciferase reporter (RLU), hCACNG1.AR.Luc LNCaP cells, 48 hours: 5.83 nM

B10: REGN10715 (antibody, human IgG4 S228P, kappa, V domains shown)
VH: B9 VH
VL: B9 VL
notes: also called antibody designation 2
[4]
  mAb Bound at 300 nM (RU): 31 RU

B11: REGN14647-M3004 (antibody, V domains shown)
VH: QVQLVESGGGVVQPGRSLRLSCTASGITFRNYGMHWVRQAPGKGLEWVAVMWYDGSNKYYADSVKGRFTISGDNSKVYLQMNSLRAEDTAVYYCARRGTIRTAAPFDYWGQGTLVTVSS
VL: not shown
modifications: N180Q in the constant region; linker-payload M3004 (VC-PAB linker, DHT), DAR ~4
[1]
  EC50; androgen receptor luciferase reporter (RLU), hCACNG1.AR.Luc LNCaP cells, 24 hours: 6.75 nM
[2]
  EC50; androgen receptor luciferase reporter (RLU), hCACNG1.AR.Luc LNCaP cells, 72 hours: 7.36 nM
[3]
  EC50; androgen receptor luciferase reporter (RLU), hCACNG1.AR.Luc LNCaP cells, 48 hours: 6.04 nM

B12: H2aM31929N/REGN10728 (antibody, human IgG4 S228P, kappa, V domains shown)
VH: B11 VH
VL: not shown
notes: also called antibody designation 1
[4]
  mAb Bound at 300 nM (RU): 25 RU

B13: H2aM31944N (antibody, mouse IgG2a, kappa, V domains shown)
VH: QVQLVESGGGVVQPGRSLRLSCEASGITFRNYGMHWVRQAPGKGLEWVAVMWYDGSNKYYADSVKGRFTISRDNSKNTVYLQMNSLRAEDTAVYYCARRGHIATAAPFDYWGQGTLVTVSS
VL: DIQMTQSPSSLSASVGDRVTISCRASQSISSYLNWYQQKPGKAPKVLMYAASSLQSGVPSRFSGSGSGTDFTLTISSLQPEDFATYYCQQSYSTPPITFGQGTRLEIKR
notes: also called antibody designation 6
[4]
  mAb Bound at 300 nM (RU): 16 RU

B14: REGN10716 (antibody, human IgG4 S228P, kappa, V domains shown)
VH: QVQLQESGPGLVKPSETLSLTCTVSGDSINNYYWTWLRQPPGKGLEWIGYIYYSGSANYNPSLKSRVTISVDTSKNQFSLKLNSVTAADTAVYYCARGAVKYFRHWGQGTLVTVSS
VL: EIVLTQSPGTLSLSPGERATLSCRASQTINHNNLAWYQQRPGQAPRLLIYGASNRATAIPDRFSGSGSGTDFTLTISRLEPEDFEVYSCQQYGSLPLTFGGGTKVEIKR
notes: also called antibody designation 4
[4]
  mAb Bound at 300 nM (RU): 31 RU

B15: REGN10783 (antibody, human IgG4 S228P, kappa, V domains shown)
VH: QVQLVESGGGVVQPGTSLRLSCAASGFTFSSYGMHWVRQAPGKGLEWVAVIWIDGSNKYYADSVKGRFTISRDNSKNTLYLQMNSLRAEDTAVYYCARRGGIVVAAPFDYWGQGTLVTVSS
VL: not shown
notes: also called antibody designation 5
[4]
  mAb Bound at 300 nM (RU): 9 RU
